From US20210292423A1 (published 2021)
Like-named read-outs stand apart in the source and are kept apart here.

Experiments:
[1] = molecular target: T1, human CD3 (TCR complex) on primary human T cells or Jurkat cells (human, UniProt P07766 23-207); test: cell-based or functional assay
[2] = molecular target: T2, human CD123 (IL3RA) on cells (human, UniProt P26951 19-378); test: cell-based or functional assay
[3] = molecular target: T3, human CD3ε/δ-Fc fusion protein (soluble recombinant CD3ε/δ complex) (human, UniProt P04234 22-105); test: SPR Biacore
T3 construct: also called huCD3ε/δ; huCD3; not shown: hinge, CH2, CH3 of human IgG with tag
T3 sequence (chain, as listed by the source mutant, chain 1 of 2): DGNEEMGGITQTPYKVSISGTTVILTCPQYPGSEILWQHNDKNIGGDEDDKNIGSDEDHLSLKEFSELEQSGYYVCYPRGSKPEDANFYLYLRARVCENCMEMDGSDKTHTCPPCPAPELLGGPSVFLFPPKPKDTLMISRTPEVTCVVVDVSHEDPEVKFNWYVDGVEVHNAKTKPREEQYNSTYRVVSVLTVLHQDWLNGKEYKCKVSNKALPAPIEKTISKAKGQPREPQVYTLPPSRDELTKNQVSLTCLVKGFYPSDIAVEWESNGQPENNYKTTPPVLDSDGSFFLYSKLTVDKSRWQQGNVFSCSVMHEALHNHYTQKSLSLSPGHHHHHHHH
T3 sequence (P04234 22-105, stated change not applied, chain 2 of 2): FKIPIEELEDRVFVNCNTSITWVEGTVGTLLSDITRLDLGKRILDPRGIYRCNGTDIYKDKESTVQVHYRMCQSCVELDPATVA

[4] = molecular target: T4, human CD123 Strep-II tagged Fc-fusion protein (human); test: SPR Biacore
T4 construct: also called human CD123-Fc; recombinant CD123
T4 sequence (chain, as listed by the source limits assumed): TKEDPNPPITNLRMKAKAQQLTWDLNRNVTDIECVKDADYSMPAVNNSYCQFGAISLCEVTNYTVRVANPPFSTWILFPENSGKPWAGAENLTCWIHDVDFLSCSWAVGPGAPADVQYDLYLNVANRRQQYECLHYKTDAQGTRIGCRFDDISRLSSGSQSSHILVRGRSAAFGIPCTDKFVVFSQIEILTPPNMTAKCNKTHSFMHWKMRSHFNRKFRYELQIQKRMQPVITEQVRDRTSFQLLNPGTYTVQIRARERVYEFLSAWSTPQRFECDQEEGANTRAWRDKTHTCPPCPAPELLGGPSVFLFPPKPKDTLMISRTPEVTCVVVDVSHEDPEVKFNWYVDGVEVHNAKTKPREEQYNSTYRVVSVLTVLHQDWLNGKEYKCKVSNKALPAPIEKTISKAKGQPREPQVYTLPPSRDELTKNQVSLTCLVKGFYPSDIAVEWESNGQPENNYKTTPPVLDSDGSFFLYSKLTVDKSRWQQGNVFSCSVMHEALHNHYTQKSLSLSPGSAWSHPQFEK

[5] = molecular target: T1, human CD3 (TCR complex) on primary …; test: cell-based or functional assay; remark: listed apart in the source
[6] = molecular target: T2, human CD123 (IL3RA) on cells; test: cell-based or functional assay; remark: listed apart in the source
[7] = molecular target: T2, human CD123 (IL3RA) on cells; test: cell-based or functional assay; remark: listed apart in the source
[8] = molecular target: T3, human CD3ε/δ-Fc fusion protein (soluble …); test: SPR Biacore; remark: listed apart in the source
[9] = molecular target: T4, human CD123 Strep-II tagged Fc-fusion …; test: SPR Biacore; remark: listed apart in the source

T1 sequence (P07766 23-207, one chain of several): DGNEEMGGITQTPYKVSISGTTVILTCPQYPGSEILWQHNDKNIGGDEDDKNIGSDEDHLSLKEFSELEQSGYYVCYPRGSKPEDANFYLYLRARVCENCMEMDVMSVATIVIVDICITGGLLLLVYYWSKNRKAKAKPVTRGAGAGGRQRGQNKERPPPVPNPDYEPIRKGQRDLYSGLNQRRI
T2 sequence (P26951 19-378): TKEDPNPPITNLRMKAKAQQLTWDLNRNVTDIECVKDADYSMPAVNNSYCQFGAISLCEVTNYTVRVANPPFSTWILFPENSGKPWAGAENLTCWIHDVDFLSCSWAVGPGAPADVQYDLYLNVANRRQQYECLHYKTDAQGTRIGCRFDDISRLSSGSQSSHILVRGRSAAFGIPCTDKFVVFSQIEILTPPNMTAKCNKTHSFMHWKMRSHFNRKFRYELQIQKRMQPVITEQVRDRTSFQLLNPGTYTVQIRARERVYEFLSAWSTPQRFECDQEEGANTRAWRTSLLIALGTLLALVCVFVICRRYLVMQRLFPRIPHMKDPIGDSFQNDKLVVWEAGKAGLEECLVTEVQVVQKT

| Binder | Jurkat-NFAT-Luc reporter, no target cells, activation at Cmax in relation to max. activation in assay with target cells (%) [1] [%] | Jurkat-NFAT-Luc reporter, with THP1 cells, EC50 (pM) [1] [pM] | Cytotoxic assay (THP cells) EC50 [pM] [2] [pM] | Kd [3] [nM] | Kd [4] [nM] | T cell activation with THP-1 target cells, CD4+ T cells (% CD69+ cells) EC50 (pM) [5] [pM] | T cell activation with THP-1 target cells, CD8+ T cells (% CD69+ cells) EC50 (pM) [5] [pM] | Cytotoxicity (THP-1) geomean EC50 [6] [ng/mL] | Cytotoxicity (THP-1) geomean EC50 [pM] [6] [pM] | Cytotoxic assay (THP cells) EC50 [pM] [7] [pM] | Kd [8] [nM] | Kd [9] [nM] |
| --- | --- | --- | --- | --- | --- | --- | --- | --- | --- | --- | --- | --- |
| single chain CD123 × CD3 bi-specific diabody in DART format MGD006 (bispecific antibody, two chains covalently bonded by a disulfide bond; also called Single chain antibody DART format MGD006) chain 1: QAVVTQEPSLTVSPGGTVTLTCRSSTGAVTTSNYANWVQQKPGQAPRGLIGGTNKRAPWTPARFSGSLLGGKAALTITGAQAEDEADYYCALWYSNLWVFGGGTKLTVLGGGGSGGGGEVQLVQSGAELKKPGASVKVSCKASGYTFTDYYMKWVRQAPGQGLEWIGDIIPSNGATFYNQKFKGRVTITVDKSTSTAYMELSSLRSEDTAVYYCARSHLLRASWFAYWGQGTLVTVSSGGCGGGEVAALEKEVAALEKEVAALEKEVAALEK chain 2: DFVMTQSPDSLAVSLGERVTMSCKSSQSLLNSGNQKNYLTWYQQKPGQPPKLLIYWASTRESGVPDRFSGSGSGTDFTLTISSLQAEDVAVYYCQNDYSYPYTFGQGTKLEIKGGGSGGGGEVQLVESGGGLVQPGGSLRLSCAASGFTFSTYAMNWVRQAPGKGLEWVGRIRSKYNNYATYYADSVKDRFTISRDDSKNSLYLQMNSLKTEDTAVYYCVRHGNFGNSYVSWFAYWGQGTLVTVSSGGCGGGKVAALKEKVAALKEKVAALKEKVAALKE | 25.1 | 370 | 0.3 | 9 | 0.2 | 1 | 3.5 | – | – | – | – | – |
| CODV-Fab hz4B4x3E3 antibody-like binding protein (bispecific antibody, also called hz4B4 × 3E3 CODV-Fab) light: QFVLTQPNSVSTNLGSTVKLSCKRNTGNIGSNYVNWYQQHEGRSPTTMIYRDDKRPDGVPDRFSGSIDRSSNSALLTINNVQTEDEADYFCQSYSSGINIIFGGGTKLTVLGQPKAAPDVVMTQTPVSLSVSVGGRVSISCRSSQSLVHDNGNTYLSWSLQKPGKSPKVLIYKVSNRFSGVSSRFTGSGSGTDFTLKISSVQPDDLGVYYCGQGTQYPFTFGSGTKLEIKTKGPSRTVAAPSVFIFPPSDEQLKSGTASVVCLLNNFYPREAKVQWKVDNALQSGNSQESVTEQDSKDSTYSLSSTLTLSKADYEKHKVYACEVTHQGLSSPVTKSFNRGEC heavy: QVQLVETGGGLVKPGQSLKLTCATSGFTFSNAWMHWVRQSPEKGLEWVAQIKARSNNYATYYAESVKGRFTISRDDSKSTIYLQMNSLTPEDTAIYYCRGTYYASKPFDYWGQGVMVTVSSSQVQLQESGPGLVQPSQTLSLTCTVSGFSLTTYDVHWVRQPPGKGLEWMGRIQNGGITDYNSALKSRLIISRDTSKSQVFLKMNSVQTEDTAMYFCAKTGSYFYAFDHWGQGTLVTVSSRTASTKGPSVFPLAPSSKSTSGGTAALGCLVKDYFPEPVTVSWNSGALTSGVHTFPAVLQSSGLYSLSSVVTVPSSSLGTQTYICNVNHKPSNTKVDKKVEPKSCDKTHTHHHHHH | – | – | – | – | – | – | – | 2 | 26.5 | 26.5 | 7 | 4.8 |
